The supplement of paper PMC7125110
± gives the standard error. This sample holds only a part of the variants without activity.

B1: glmS ribozyme (parent)
chain: AUAAAAGCGCCAGAACUACAGAAAUGUAGUUGACGAGGAGGAGGUUUAUCGAAUUUUCGGCGGAUGCCUCCAAA

How the values were obtained:
Settings in all cases: with glucosamine-6-phosphate
glucosamine-6-phosphate [1] = variants of: B1; assay: self-cleavage kobs at 40 uM GlcN6P; higher = faster cleavage; RNA array
In short: (§1)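 Barcoded ribozyme variants were transcribed in situ on sequenced MiSeq chips by E. coli RNA polymerase. At 37 °C, a hybridised Cy3 probe tracked them while glucosamine-6-phosphate (40 μM to 10 mM) in HEPES/KCl/Mg(OAc)2 buffer flowed in and tiles were imaged over ~14 h. Per-tile medians of signals normalised to baseline and to non-cleaving reference variants were fit to one- or two-exponential decays, giving kobs. kcat and KM came from weighted Michaelis–Menten fits across concentrations.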

glucosamine-6-phosphate [2] = variants of: B1; assay: self-cleavage kobs at 10000 uM GlcN6P; higher = faster cleavage; RNA array
In short: as §1

glucosamine-6-phosphate [3] = variants of: B1; assay: self-cleavage kobs at 160 uM GlcN6P; higher = faster cleavage; RNA array
In short: as §1

glucosamine-6-phosphate [4] = variants of: B1; assay: self-cleavage kobs at 640 uM GlcN6P; higher = faster cleavage; RNA array
In short: as §1

glucosamine-6-phosphate [5] = variants of: B1; assay: self-cleavage kobs at 2500 uM GlcN6P; higher = faster cleavage; RNA array
In short: as §1

Variant | self-cleavage kobs at 40 uM GlcN6P (glucosamine-6-phosphate [1]) [s⁻¹] | self-cleavage kobs at 10000 uM GlcN6P (glucosamine-6-phosphate [2]) [s⁻¹] | self-cleavage kobs at 160 uM GlcN6P (glucosamine-6-phosphate [3]) [s⁻¹] | self-cleavage kobs at 640 uM GlcN6P (glucosamine-6-phosphate [4]) [s⁻¹] | self-cleavage kobs at 2500 uM GlcN6P (glucosamine-6-phosphate [5]) [s⁻¹]
C10A U30G C71U | < 1e-05 | < 1e-05 | – | – | –
C8G C68U | < 1e-05 | – | – | – | –
A42U G44U | < 1e-05 | – | < 1e-05 | < 1e-05 | < 1e-05
G7C A15C | < 1e-05 | < 1e-05 | < 1e-05 | < 1e-05 | < 1e-05
C8G G41U C61U | < 1e-05 | < 1e-05 | < 1e-05 | – | –
A15C U57C | < 1e-05 | 5.67e-05 ± 6.7e-06 | – | – | –
C68A C70A | < 1e-05 | – | – | – | –
G51C G66C | < 1e-05 | – | < 1e-05 | < 1e-05 | –
C8U G38C G44U A48C | < 1e-05 | – | – | – | –
C16G C34G G40C U55A C58U U69A | < 1e-05 | < 1e-05 | – | – | –
A12G C16G G43C | < 1e-05 | – | – | – | –
G9C G66U | < 1e-05 | < 1e-05 | < 1e-05 | < 1e-05 | < 1e-05
G40A C68A | < 1e-05 | < 1e-05 | < 1e-05 | < 1e-05 | < 1e-05
C8G A12U A33U G60C | < 1e-05 | < 1e-05 | – | – | –
A6C A12U A42U | < 1e-05 | < 1e-05 | – | < 1e-05 | –
U31G G38C | < 1e-05 | – | < 1e-05 | < 1e-05 | < 1e-05
A6G G13U G38U G40U | < 1e-05 | < 1e-05 | – | – | –
G7C U65A | < 1e-05 | < 1e-05 | – | < 1e-05 | –
C10A A52U U56G | < 1e-05 | < 1e-05 | < 1e-05 | < 1e-05 | < 1e-05
U45C C61U | < 1e-05 | < 1e-05 | < 1e-05 | < 1e-05 | –
C8A C16G | < 1e-05 | < 1e-05 | < 1e-05 | < 1e-05 | < 1e-05
G9A C50G C70G | 9.06e-05 ± 2.7e-05 | 4.63e-05 ± 1.4e-05 | – | – | –
A14G C67A | 0.000654 ± 7e-05 | 0.0413 ± 0.01 | 0.00108 ± 0.00017 | 0.00492 ± 0.00077 | 0.00642 ± 0.0014

Variant | self-cleavage kobs at 40 uM GlcN6P (glucosamine-6-phosphate [1]) [s⁻¹] | self-cleavage kobs at 10000 uM GlcN6P (glucosamine-6-phosphate [2]) [s⁻¹] | self-cleavage kobs at 160 uM GlcN6P (glucosamine-6-phosphate [3]) [s⁻¹] | self-cleavage kobs at 640 uM GlcN6P (glucosamine-6-phosphate [4]) [s⁻¹] | self-cleavage kobs at 2500 uM GlcN6P (glucosamine-6-phosphate [5]) [s⁻¹]
A14G A15U U31C | 0.000793 ± 0.00021 | 0.0212 ± 0.0057 | – | – | –
C34A G60A C71A | < 1e-05 | < 1e-05 | – | – | –
G7A U56G | < 1e-05 | – | – | < 1e-05 | –
G44U C58G | < 1e-05 | < 1e-05 | < 1e-05 | < 1e-05 | < 1e-05
G51U G59A | < 1e-05 | < 1e-05 | – | – | –
A14U G63U | < 1e-05 | – | < 1e-05 | < 1e-05 | < 1e-05
A12G C68G C71U | < 1e-05 | < 1e-05 | – | < 1e-05 | –
G35C U46G C70G | < 1e-05 | < 1e-05 | – | < 1e-05 | < 1e-05
G9U C34A | < 1e-05 | < 1e-05 | < 1e-05 | < 1e-05 | –
U30A G37U G44U U45A C70U | < 1e-05 | < 1e-05 | – | – | –
C50G U69A | 0.000132 ± 2.4e-05 | 7.99e-05 ± 1.5e-05 | 0.000172 ± 2.9e-05 | 0.000587 ± 0.0001 | 0.000186 ± 2.8e-05
U54C G60A | < 1e-05 | – | – | – | –
U54G C67G | 0.000338 ± 4.2e-05 | 0.00398 ± 0.0006 | 0.000142 ± 4.5e-05 | 0.00079 ± 0.00024 | 0.000568 ± 0.00012
A6C U46A | < 1e-05 | – | < 1e-05 | < 1e-05 | –
U54A C71G | 0.000131 ± 2.1e-05 | 0.00197 ± 0.00046 | 0.000336 ± 0.00012 | 0.000507 ± 0.00011 | 0.000368 ± 0.00016
G41A U46C | < 1e-05 | 4.37e-05 ± 1.2e-05 | – | – | –
C11G A42U | < 1e-05 | < 1e-05 | < 1e-05 | < 1e-05 | < 1e-05
G59A A64U C67G | < 1e-05 | – | – | – | –
C10A A39U U69C | < 1e-05 | < 1e-05 | – | – | –
G40U U56A G62U C67G | < 1e-05 | – | < 1e-05 | < 1e-05 | < 1e-05
G29A A33G A36C U45C | < 1e-05 | – | – | – | –
A15C G59U | < 1e-05 | – | < 1e-05 | < 1e-05 | –
G7U G43U A52G C68A C70U | < 1e-05 | – | – | – | –

Variant | self-cleavage kobs at 40 uM GlcN6P (glucosamine-6-phosphate [1]) [s⁻¹] | self-cleavage kobs at 10000 uM GlcN6P (glucosamine-6-phosphate [2]) [s⁻¹] | self-cleavage kobs at 160 uM GlcN6P (glucosamine-6-phosphate [3]) [s⁻¹] | self-cleavage kobs at 640 uM GlcN6P (glucosamine-6-phosphate [4]) [s⁻¹] | self-cleavage kobs at 2500 uM GlcN6P (glucosamine-6-phosphate [5]) [s⁻¹]
G7A U47A | < 1e-05 | – | < 1e-05 | – | –
G7C C11A | < 1e-05 | < 1e-05 | < 1e-05 | < 1e-05 | –
G29C G63U | < 1e-05 | < 1e-05 | – | – | < 1e-05
G9C G32C C68A | < 1e-05 | < 1e-05 | – | < 1e-05 | < 1e-05
G7U U30G C61G G62U | < 1e-05 | – | – | – | –
C50G G62A C68A | 6.73e-05 ± 1.6e-05 | 9.9e-05 ± 2.3e-05 | – | – | –
C8G G62A | < 1e-05 | – | – | – | < 1e-05
A6G G29A C34G | < 1e-05 | < 1e-05 | – | < 1e-05 | < 1e-05
G13A A15G C16G G32U A42C U46A U57A C68U | < 1e-05 | – | – | – | –
A33C U45C | < 1e-05 | 4.65e-05 ± 1.3e-05 | – | – | –
C8G C58A | < 1e-05 | < 1e-05 | < 1e-05 | < 1e-05 | < 1e-05
A6U A12G A42C A52U A64G C68G | < 1e-05 | < 1e-05 | – | – | < 1e-05
G35C A39C | < 1e-05 | < 1e-05 | < 1e-05 | < 1e-05 | < 1e-05
G29U U30G G43C C68G | 0.000152 ± 2.6e-05 | 0.0065 ± 0.0015 | – | – | –
G13A G51A | < 1e-05 | < 1e-05 | – | < 1e-05 | –
G13U G38U A52G C68G U69G | 0.000165 ± 5.9e-05 | 8.14e-05 ± 2.1e-05 | – | – | –
C10G G51C | < 1e-05 | < 1e-05 | < 1e-05 | < 1e-05 | –
A12C A14G | 0.00067 ± 0.00016 | 0.0484 ± 0.011 | 0.00156 ± 0.00021 | 0.00653 ± 0.0012 | 0.0128 ± 0.0023
G29A A36G | < 1e-05 | – | < 1e-05 | < 1e-05 | < 1e-05
A12C G38A G51A G59U C68U | < 1e-05 | < 1e-05 | – | – | –
G51C A53U U57C G59U | < 1e-05 | – | – | – | –
A6C C8U A15G | < 1e-05 | < 1e-05 | – | – | –
G29U G32C C61G | < 1e-05 | < 1e-05 | – | – | –

Variant | self-cleavage kobs at 40 uM GlcN6P (glucosamine-6-phosphate [1]) [s⁻¹] | self-cleavage kobs at 10000 uM GlcN6P (glucosamine-6-phosphate [2]) [s⁻¹] | self-cleavage kobs at 160 uM GlcN6P (glucosamine-6-phosphate [3]) [s⁻¹] | self-cleavage kobs at 640 uM GlcN6P (glucosamine-6-phosphate [4]) [s⁻¹] | self-cleavage kobs at 2500 uM GlcN6P (glucosamine-6-phosphate [5]) [s⁻¹]
A53U G60C | < 1e-05 | < 1e-05 | – | – | < 1e-05
G59A G62C | < 1e-05 | < 1e-05 | < 1e-05 | < 1e-05 | < 1e-05
C10U G21U G59C | < 1e-05 | – | – | < 1e-05 | < 1e-05
G9U A15G | < 1e-05 | – | – | < 1e-05 | < 1e-05
A6C A14C U31G A48G G51U C58U C61A | 8.19e-05 ± 3.4e-05 | – | – | – | –
G40A A53C G62U | < 1e-05 | < 1e-05 | – | – | –
G37U G41U U56A G62A G63U | < 1e-05 | – | – | – | –
G37U G38A | < 1e-05 | < 1e-05 | – | – | –
G7U A12C | < 1e-05 | < 1e-05 | < 1e-05 | < 1e-05 | < 1e-05
A12U G13A U31A G38A G40A | < 1e-05 | < 1e-05 | – | – | –
C34U A42G | < 1e-05 | < 1e-05 | < 1e-05 | – | –
G37U G40U | < 1e-05 | < 1e-05 | < 1e-05 | < 1e-05 | < 1e-05
A6C A33U | < 1e-05 | < 1e-05 | – | < 1e-05 | < 1e-05
C10A C11U | < 1e-05 | < 1e-05 | < 1e-05 | – | < 1e-05
C8U A42U G44A U56C | < 1e-05 | – | – | – | –
G21U A39G | 0.00105 ± 0.00032 | – | – | – | –
G37A A42U C70A | < 1e-05 | – | – | – | –
A15G U55G G63A | < 1e-05 | < 1e-05 | – | – | –
U30C G35A C67U | < 1e-05 | – | – | – | –
U56G G62A G63A | < 1e-05 | – | – | – | –
G38U G44U U69G C70G | < 1e-05 | – | – | – | –
C8G U54A C67A | < 1e-05 | – | – | – | –
